For 20 variants, self-cleavage results are on record in the RNAGym collection of RNA variant scans (doi:10.7554/elife.90254).

Sequences and labels used below:
B1: LINE1-full (parent)
chain: UACGUAGGUGGUUUUCCCCUGAUAGUGCUAAGGGGGCCUGGAAGUUUGGACUGGGCAGAGCUCAACACAGCGUGGCAAAGUGGCUGUGGCUAGACUGCCUCUCUGGAUUCCUCGUCACUCAGCAGGGCAUCUCUGAGAGAAAUGCC

The variants in this data set derive from B1. The data set is described as follows: self-cleavage, relative activity (ratio to wild type); higher = more cleavage; in vitro, sequencing; the parent is a self-cleaving ribozyme.
As for UACGUAGGUGGUUUUCCCCUGAUAGUGCUAAGGGGGCCUGGAAGUUUGGACUAGGCAGAGCUCAACACAGCGUGGCAAAGUGGCUGUGGCUAGACUGCCUCUCUGGAUUCCUCGUCACUCAGCAGGGCAUCUCUGAGAGAAACGCC [G53A U143C], the self-cleavage was determined as 1.59.
As for UACGUAGGUGGUUUUCCCCUGAUAGUGCUAAGGGGGCCUGGAAGUUUGGACUAGGCAGAGCCCAACACAGCGUGGCAAAGUGGCUGUGGCUAGACUGCCUCUCUGGAUUCCUCGUCACUCAGCAGGGCAUCUCUGAGAGAAAUGCC [G53A U62C], the figure is 0.05; as for UACGUAGGUGGUUUUCCCCUGAUAGUGCUAAGGGGGCCUGGAAGUUUGGACUCGGCAGAGCUCAACACAGCGUGGCAAAGUGGCUGUGGCUAGACCGCCUCUCUGGAUUCCUCGUCACUCAGCAGGGCAUCUCUGAGAGAAAUGCC [G53C U96C], 0.09.
As for UACGUAGGUGGUUUUCCCCUGAUAGUGCUAAGGGGGCCUGGAAGUUUGGACUAGGCAGAGCUCAACACAGCGUGGCAAAGUGGCUGUGGCUAGACUGCCUCUCUGGAAUCCUCGUCACUCAGCAGGGCAUCUCUGAGAGAAAUGCC [G53A U108A], the figure is 0.14.
In the case of UACGUAGGUGGUUUUCCCCUGAUAGUGCUAAGGGGGCCUGGAAGUUUGGACUCGGCAGAGCUCAACACAGCGUGGCAAAGCGGCUGUGGCUAGACUGCCUCUCUGGAUUCCUCGUCACUCAGCAGGGCAUCUCUGAGAGAAAUGCC [G53C U81C] it was 1.34; in that of UACGUAGGUGGUUUUCCCCUGAUAGUGCUAAGGGGGCCUGGAAGUUUGGACUAGGCAGAGCUCAACACAGCGUGGCAAAGUGGCUGUGGCUAGACUGCCUCUCUGGAUUCCUCGUCACUCAGCAGGGCAACUCUGAGAGAAAUGCC [G53A U130A], 1.21.
With UACGUAGGUGGUUUUCCCCUGAUAGUGCUAAGGGGGCCUGGAAGUUUGGACUAGGCAGAGCUCAACACAGCGUGGCAAAGUGGCUGUGGCUAGACUGCCUCUCUGGAUUCCUCGUCACUCAGCAGGGCAUCCCUGAGAGAAAUGCC [G53A U132C], the self-cleavage was 1.29.
In the case of UACGUAGGUGGUUUUCCCCUGAUAGUGCUAAGGGGGCCUGGAAGUUUGGACUAGGCAGAGCUCAACACAGCGUGGCAAAGUGGCUGUGGCUAGACUGCCUCUCUGGAUUCCCCGUCACUCAGCAGGGCAUCUCUGAGAGAAAUGCC [G53A U112C], the self-cleavage stood at 1.25.
In the case of UACGUAGGUGGUUUUCCCCUGAUAGUGCUAAGGGGGCCUGGAAGUUUGGACUAGGCAGAGCUCAACACAGCGUGGCAAAGUGGCUGUGGCUAGACUGCCUCUCUGGAUUCCUCGUCACUCAGCAGGGCAUCUCAGAGAGAAAUGCC [G53A U134A] it was 1.23; in that of UACGUAGGUGGUUUUCCCCUGAUAGUGCUAAGGGGGCCUGGAAGUUUGGACUAGGCAGAGCUCAACACAGCGUGGCAAAGUGGCUGUGGCCAGACUGCCUCUCUGGAUUCCUCGUCACUCAGCAGGGCAUCUCUGAGAGAAAUGCC [G53A U91C], 0.53.
With UACGUAGGUGGUUUUCCCCUGAUAGUGCUAAGGGGGCCUGGAAGUUUGGACUAGGCAGAGCUCAACACAGCGUGGCAAAGUGGCUGUGGCUAGACCGCCUCUCUGGAUUCCUCGUCACUCAGCAGGGCAUCUCUGAGAGAAAUGCC [G53A U96C], the self-cleavage worked out at 0.
In the case of UACGUAGGUGGUUUUCCCCUGAUAGUGCUAAGGGGGCCUGGAAGUUUGGACUUGGCAGAGCUCAUCACAGCGUGGCAAAGUGGCUGUGGCUAGACUGCCUCUCUGGAUUCCUCGUCACUCAGCAGGGCAUCUCUGAGAGAAAUGCC [G53U A65U] it was 0.27.
As for UACGUAGGUGGUUUUCCCCUGAUAGUGCUAAGGGGGCCUGGAAGUUUGGACUUGGCAGAGCUCGACACAGCGUGGCAAAGUGGCUGUGGCUAGACUGCCUCUCUGGAUUCCUCGUCACUCAGCAGGGCAUCUCUGAGAGAAAUGCC [G53U A64G], the figure is 0.16; as for UACGUAGGUGGUUUUCCCCUGAUAGUGCUAAGGGGGCCUGGAAGUUUGGACUCGGCAGAGCUCGACACAGCGUGGCAAAGUGGCUGUGGCUAGACUGCCUCUCUGGAUUCCUCGUCACUCAGCAGGGCAUCUCUGAGAGAAAUGCC [G53C A64G], 0.22; as for UACGUAGGUGGUUUUCCCCUGAUAGUGCUAAGGGGGCCUGGAAGUUUGGACUAGGCAGAGCUCAACACAGCGUGGCAAAGUGGCAGUGGCUAGACUGCCUCUCUGGAUUCCUCGUCACUCAGCAGGGCAUCUCUGAGAGAAAUGCC [G53A U85A], 0.14.
As for UACGUAGGUGGUUUUCCCCUGAUAGUGCUAAGGGGGCCUGGAAGUUUGGACUAGGCAGAGCUCAACACAGCGUGGCAAAGUGGCCGUGGCUAGACUGCCUCUCUGGAUUCCUCGUCACUCAGCAGGGCAUCUCUGAGAGAAAUGCC [G53A U85C], the figure is 0.2.
As for UACGUAGGUGGUUUUCCCCUGAUAGUGCUAAGGGGGCCUGGAAGUUUGGACUCGGCAGAGCUCAACACAGCGUGGCAAAGUGGCUGUGGCUAGACUGCCUCUCUGGAUUCCUCGCCACUCAGCAGGGCAUCUCUGAGAGAAAUGCC [G53C U115C], the self-cleavage came to 1.96.
As for UACGUAGGUGGUUUUCCCCUGAUAGUGCUAAGGGGGCCUGGAAGUUUGGACUUGGCCGAGCUCAACACAGCGUGGCAAAGUGGCUGUGGCUAGACUGCCUCUCUGGAUUCCUCGUCACUCAGCAGGGCAUCUCUGAGAGAAAUGCC [G53U A57C], the figure is 0.01; as for UACGUAGGUGGUUUUCCCCUGAUAGUGCUAAGGGGGCCUGGAAGUUUGGACUAGGCAGAGCUCAACACAGCGGGGCAAAGUGGCUGUGGCUAGACUGCCUCUCUGGAUUCCUCGUCACUCAGCAGGGCAUCUCUGAGAGAAAUGCC [G53A U73G], 1.05; as for UACGUAGGUGGUUUUCCCCUGAUAGUGCUAAGGGGGCCUGGAAGUUUGGACUAGGCAGAGCUCAACACAGCGAGGCAAAGUGGCUGUGGCUAGACUGCCUCUCUGGAUUCCUCGUCACUCAGCAGGGCAUCUCUGAGAGAAAUGCC [G53A U73A], 1.88.
